These results are taken from patent US20220332844A1 (ORIONIS BIOSCIENCES, published 2022).

First the molecules themselves.
T1: mouse FAP on transiently transfected HEK293T cells (pMET7 FLAG-mFAP) (mouse, UniProt P97321 1-761)
T1 construct: whole, on cells; not shown: FLAG tag of the plasmid pMET7 FLAG-mFAP
T1 sequence (looked up): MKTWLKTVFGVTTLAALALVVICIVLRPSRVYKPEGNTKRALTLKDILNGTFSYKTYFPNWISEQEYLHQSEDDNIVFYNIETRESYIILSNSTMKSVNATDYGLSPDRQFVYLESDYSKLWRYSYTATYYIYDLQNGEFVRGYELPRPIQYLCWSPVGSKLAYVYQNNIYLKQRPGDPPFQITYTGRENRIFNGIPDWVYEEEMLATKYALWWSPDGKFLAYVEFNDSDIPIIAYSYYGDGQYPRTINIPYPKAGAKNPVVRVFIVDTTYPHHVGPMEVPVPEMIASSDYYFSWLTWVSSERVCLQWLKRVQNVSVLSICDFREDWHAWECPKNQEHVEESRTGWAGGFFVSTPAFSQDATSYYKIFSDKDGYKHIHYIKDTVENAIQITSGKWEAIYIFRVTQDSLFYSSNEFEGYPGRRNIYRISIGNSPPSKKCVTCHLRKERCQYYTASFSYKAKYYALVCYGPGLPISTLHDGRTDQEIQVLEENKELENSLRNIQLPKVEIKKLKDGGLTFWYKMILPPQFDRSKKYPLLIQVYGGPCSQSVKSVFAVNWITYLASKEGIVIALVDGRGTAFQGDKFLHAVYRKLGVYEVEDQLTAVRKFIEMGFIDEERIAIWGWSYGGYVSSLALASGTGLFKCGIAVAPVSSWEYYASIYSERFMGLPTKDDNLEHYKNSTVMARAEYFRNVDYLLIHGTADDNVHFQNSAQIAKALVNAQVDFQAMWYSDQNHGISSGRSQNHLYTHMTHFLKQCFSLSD

B1: 2PE36 (VHH)
VHH: QVQLQESGGGLVQPGGSLRLSCAASGSTFSINAVAWYRQAPGKRRELVAGISGGGVTNYPDSVKGRFTISRDNAKNTVYLQMSSLKPEDTAVYYCNLWPPRASPDGRVYWGQGTQVTVSS
B2: 2PE44 (VHH)
VHH: QVQLQESGGGLVQPGGSLRLSCAASGSTFSVNAVAWYRQAPGKRRELVAGISGGGVTNYPDSVKGRFTISRDNAKNTVYLQMSSLIPEDTAVYYCNLWPPRASPGGRVYWGQGTQVTVSS
B3: 2PE40 (VHH)
VHH: QVQLQESGGGLVQPGGSLRLSCAASESTFSINAVAWYRQAPGKRRELVAGISGGGVTNYPDSVKGRFTISRDNAKNIVYLQMSSLKPEDTAVYYCNLWPPRASPGGRVYWGQGTQVTVSS
B4: 3PE57 (VHH)
VHH: QVQLQESGGGLVQPGGSLRLSCAASGSTFSVNAVAWYRQAPGKRRELVAGISGGGVTNYPDSVKGRFTISRDNAKNTVYLQMSSLKPEDTAVYYCNLWPPRASPDGRVYWGQGTQVTVSS
B5: 3PE93 (VHH)
VHH: QVQLQESGGGLVQPGESLRLSCAVSGSTSSMNAMAWYRQAPGKRRELVAGISGGGATNYPDSMKGRFTISRDNAKNTVYLQMSSLKPEDTAVYYCNLWPPRASPGGGVYWGQGTQVTVSS
B6: 2PE42 (VHH)
VHH: QVQLQESGGGLVQAGGSLRLSCAASGSTFSINAVAWYRQAPGKRRELVAGISGGGVTNYPDSVRGRFTISRDNAKNTVYLQMSSLKPEDTAVYYCNLWPPRASPDGRVYWGQGTQVTVSS
B7: 3PE12 (VHH)
VHH: QVQLQESGGGLVQPGGSLRLSCAASGSTFSGNAMAWYRQAPGKRRELVAGISGGGVTNYPDSVKGRFTISRDNAKNTVYLQMSSLKPEDTAVYYCNLWPPRVSPGGGVYWGQGTQVTVSS
B8: 3PE42 (VHH)
VHH: QVQLQESGGGLVQPGESLRLSCAVSGSTSSMNAMAWYRQAPGKRRELVAGISGGGATNYPDSVKGRFTISRDNAKNTVYLQMSSLKPEDTAVYYCNLWPPRASPGGGVYWGQGTQVTVSS

The assay concerns the target T1, mouse FAP on transiently transfected …. Nature of the assay: FACS, serial dilution of purified VHH on transfected HEK293T cells. Background: Flow cytometry measures light scatter and fluorescence of single cells or particles in a stream.
With B1, the binding result was “binds”.

On to B2, for which the binding result was “binds”.

Consider B3, for which the binding result is on record as “binds”.

Turning to B4, the binding result was “binds”. As for B5, the binding result is on record as “binds”. As for B6, the entry is “binds”; as for B7, “binds”. Next, B8: “binds”.
